Reference: PMC4474532

B1: human PERK luminal domain (residues 105–403) [human] / itself (parent)
chain: LVIISTLDGRIAALDPENHGKKQWDLDVGSGSLVSSSLSKPEVFGNKMIIPSLDGALFQWDQDRESMETVPFTVESLLESSYKFGDDVVLVGGKSLTTYGLSAYSGKVRYICSALGCRQWDSDEMEQEEDILLLQRTQKTVRAVGPRSGNEKWNFSVGHFELRYIPDMETRAGFIESTFKPNENTEESKIISDVEEQEAAIMDIVIKVSVADWKVMAFSKKGGHLEWEYQFCTPIASAWLLKDGKVIPISLFDDTSYTSNDDVLEDEEDIVEAARGATENSVYLGMYRGQLYLQSSVRI

Variants of: B1
Experiment: sedimentation velocity AUC
Conditions: with itself

screen value (parent: 0) [%] | screen value (parent: 0.73) | Variant
-58 | 0.31 | chain 1 L284N
-52 | 0.35 | chain 1 A274N
-61 | 0.28 | chain 1 L293N
-57 | 0.32 | chain 1 L291N
